Assay results taken from patent US8715970B2, “Enzymatically catalyzed method of preparing mono-acylated polyols” (BASF SE, priority 2009, dated 2014).
Changes are numbered by the printed parent chain. In names and notes the source's numbering stands.

Tests used:
Assay type in all cases: biochemical
[1] = Enzyme-catalyzed acylation of 1,3-propanediol with ethyl acetate as acyl donor (Example 2); details: for Conversion at 3:1 (monoester:diester) / Conversion at 9:1 (monoester:diester) / Maximum monoester yield: 1,3-propanediol 20 mM in ethyl acetate; for Maximum monoester yield: 29° C.
Experimental: (§1) Each diol was dissolved to a concentration of 20 mM together with 5 mM of 3-hexanone in ethyl acetate, ≧99% from Fluka, which was used as acyl donor and solvent. Reactions were started by adding 4 ml reaction solution to 20 mg enzyme carrier beads loaded with either wild-type or T40A mutated CALB. Reactions were run at 29° C. on a HLC rotating thermo block. Aliquots of 50 μl were taken, filtered through wool in a Pasteur pipette and diluted with 50 μl ethyl acetate prior to analysis. The 3-hexanon used as internal standard were present in the reaction solution throughout both reaction and analysis.
(§2) 5 mM 3-hexanone was used as internal standard in the reaction mixtures together with 20 mM diol. Aliquots were taken during the reaction by taking 50 μl of reaction sample. The samples were filtered though wool together with 50 μl ethyl acetate, thereby any remaining enzyme were removed and the reaction samples were diluted by a factor of 2 prior to analysis.
(§3) The reactions catalyzed by the T40A-mutant were rerun with 100 mg enzyme carrier beads for determination of maximum monoester yield. The reactions with 2-methyl-1,3-propanediol and 2-phenyl-1,3-propanediol were rerun at 100 mM concentration of diol and 50 mg enzyme carrier beads, both with CALB wild type and CALB T40A-mutant. This was done in order to determine the enantiomeric excess.
(§4) All reactions were analyzed on GC, Hewlett Packard 5890 series II. Two different 25 m×0.32 mm WCOT fused silica columns were used, depending on the different substrates and products that were analyzed. A polar GC-column with CP Chirasil-Dex CB coating was used for the reactions with 1,2-ethanediol and 1,3-propanediol. A non-polar GC-column with CP-SIL 5CB coating was used for the reactions with 1,4-butanediol, 2-methyl-1,3-propanediol and 2-phenyl-1,3-propanediol.
(§5) The response factor for each diol was determined in relationship to 3-hexanone. When all diol and mono-ester had converted to di-ester, the response factor for the di-ester could be determined in relationship to […]. The concentration of mono-ester in each reaction was determined by subtracting the concentration of di-ester from the starting concentration of diol.
A great difference in concentration between acyl donor and diol was accomplished in the reactions by using ethyl acetate as solvent and acyldonor and a diol concentration of 20 mM. Therefore the reactions was considered to irreversible, following the reaction scheme:
[formula] A, B and C corresponds to diol, monoester and diester, respectively. k1 and k2 respectively corresponds to the reaction rates of the acylation of diol and monoester.
The reaction rates are dependent on enzyme concentrations and the kcat/KM towards the substrates. By fitting the concentrations measured over time into the equations and using the enzyme concentration determined by active site titration, the following results were obtained.

[2] = Acylation of 1,2-ethanediol in competition with 1-butanol (Example 4)
Experimental: (§6) Additionally, 1-butanol, ≧99.5% from Riedel-de Haën, was used as a competing substrate.
(§7) 25 mM decane ≧98% from Fluka, was used as internal standard.
(§8) Two different acyl donors were used:
(§9) Ethyl acetate, ≧99% from Fluka, used as both solvent and acyl donor
(§10) 1 M Vinyl butyrate, >99% from Fluka, together with in MTBE, 99.5% from Lab-Scan, used as solvent.
(§11) Each diol was dissolved to a concentration of 100 mM together with 25 mM of decane in ethyl acetate, ≧99% from Fluka, used as acyl donor and solvent. Reactions were started by adding 3 ml reaction solution to 10 mg enzyme carrier beads loaded with wild-type CALB or 20 mg carrier beads loaded with T40A mutated CALB. Reactions were run at 29° C. in a temperature bath consisting of a HETO thermostat coupled to a Bom-roerder combined temperature bath and magnetic stirrer. 25 mM decane was used as internal standard were present in the reaction solution throughout both reaction and analysis. Aliquots of 60 μl were taken, filtered through wool in a Pasteur pipette together with 540 μl ethyl acetate prior to analysis. The filtration through wool removed any remaining enzyme from the reaction solution, and the reaction samples were diluted by a factor of 10 prior to analysis.
as §4, with “1,2-ethanediol.” for “1,2-ethanediol and 1,3-propanediol.”, “1,4-butanediol.” for “1,4-butanediol, 2-methyl-1,3-propanediol and 2-phenyl-1,3-propanediol.”
as §5, with “decane.” for “3-hexanone.”

[3] = Acylation of 1,4-butanediol in competition with 1-butanol (Example 4)
Experimental: as §6, §7, §8, §9, §10, §11
as §4, with “1,2-ethanediol.” for “1,2-ethanediol and 1,3-propanediol.”, “1,4-butanediol.” for “1,4-butanediol, 2-methyl-1,3-propanediol and 2-phenyl-1,3-propanediol.”
as §5, with “decane.” for “3-hexanone.”

[4] = Enzyme-catalyzed acylation of 2-methyl-1,3-propanediol with vinyl butyrate as acyl donor (Example 3); details: 2-methyl-1,3-propanediol 10 mM, 200 mM vinyl butyrate in MTBE, 29° C.
Experimental: Each diol was dissolved to a concentration of 10 mM together with 2 mM of decane ≧98% from Fluka and 200 mM vinyl butyrate >99% from Fluka in MTBE 99.5% from Lab-Scan, which was used as acyl donor and solvent. Reactions were started by adding 4 ml reaction solution to 20 mg enzyme carrier beads loaded with either wild-type or T40A mutated CALB. Reactions were run at 29° C. on a HLC rotating thermo block. Aliquots of 50 μl were taken, filtered through wool in a Pasteur pipette and diluted with 50 μl ethyl acetate prior to analysis. The decane used as internal standard were present in the reaction solution throughout both reaction and analysis.
All reactions were analyzed on GC, Hewlett Packard 5890 series II. A 25 m×0.32 mm WCOT fused silica non-polar GC-column with CP-SIL 5CB coating was used for the reactions.
as §5, with “decane.” for “3-hexanone.”

[5] = Enzyme-catalyzed acylation of 2-phenyl-1,3-propanediol with ethyl acetate as acyl donor (Example 2); details: 2-Ph-1,3-propanediol 20 mM in ethyl acetate; for Maximum monoester yield: 29° C.
Experimental: as §1, §2, §3, §4, §5

B1: WT: non-mutated Candida antarctica lipase B (CALB), SEQ ID NO: 2, immobilized on carrier beads (protein, listed as Candida antarctica)
chain: LPSGSDPAFSQPKSVLDAGLTCQGASPSSVSKPILLVPGTGTTGPQSFDSNWIPLSAQLGYTPCWISPPPFMLNDTQVNTEYMVNAITTLYAGSGNNKLPVLTWSQGGLVAQWGLTFFPSIRSKVDRLMAFAPDYKGTVLAGPLDALAVSAPSVWQQTTGSALTTALRNAGGLTQIVPTTNLYSATDEIVQPQVSNSPLDSSYLFNGKNVQAQAVCGPLFVIDHAGSLTSQFSYVVGRSALRSTTGQARSADYGITDCNPLPANDLTPEQKVAAAALLAPAAAAIVAGPKQNCEPDLMPYARPFAVGKRTCSGIVTP
modifications: immobilized on carrier beads
- Conversion at 3:1 (monoester:diester) [1]: 19%
- Conversion at 9:1 (monoester:diester) [1]: 10%
- Maximum monoester yield [1]: 33%
- Selectivity diol/monoester ([1]; 1,3-propanediol, ethyl acetate, listed as wild type): 0.94
- Selectivity diol/monoester ([1]; 1,3-propanediol, ethyl acetate, listed as wild type CALB): 0.9
- Initial reaction rates ([2]; ethyl acetate): 0.081 mol/g/min
- Initial reaction rates ([2]; vinyl butyrate): 0.41 mol/g/min
- Initial reaction rates ([3]; ethyl acetate): 0.065 mol/g/min
- Initial reaction rates ([3]; vinyl butyrate): 0.16 mol/g/min
- Maximum monoester yields [4]: 34%
- Conversion at 3:1 (monoester:diester) [5]: 46%
- Maximum monoester yield [5]: 52%

B2: T40A: CALB mutant with single mutation Thr40Ala (SEQ ID NO: 4) (protein)
chain: B1 chain with T40X
modifications: T40 Mutant
- Conversion at 3:1 (monoester:diester) [1]: 22%
- Conversion at 9:1 (monoester:diester) [1]: 19%
- Maximum monoester yield [1]: 50%
- Selectivity diol/monoester ([1]; 1,3-propanediol, ethyl acetate): 2.4
- Selectivity ratio diol/monoester T40A/WT ([1]; 1,3-propanediol, ethyl acetate): 2.6
- Initial reaction rates ([2]; ethyl acetate): 0.002 mol/g/min
- Rate ratio, T40A/WT ([2]; ethyl acetate): 2.5%
- Selectivity towards diol over 1-butanol, compared with wild type CALB ([2]; ethyl acetate as acyl donor and solvent (FIG. 9A)): higher
- Initial reaction rates ([2]; vinyl butyrate): 0.065 mol/g/min
- Rate ratio, T40A/WT ([2]; vinyl butyrate): 16%
- Selectivity towards diol over 1-butanol, compared with wild type CALB ([2]; vinyl butyrate, MTBE (FIG. 10A)): higher
- Initial reaction rates ([3]; ethyl acetate): 0.0008 mol/g/min
- Rate ratio, T40A/WT ([3]; ethyl acetate): 1.2%
- Selectivity towards diol over 1-butanol, compared with wild type CALB ([3]; ethyl acetate as acyl donor and solvent (FIG. 9B)): higher
- Initial reaction rates ([3]; vinyl butyrate): 0.016 mol/g/min
- Rate ratio, T40A/WT ([3]; vinyl butyrate): 9.6%
- Selectivity towards diol over 1-butanol, compared with wild type CALB ([3]; vinyl butyrate, MTBE (FIG. 10B)): higher
- Maximum monoester yields [4]: 56%
- Conversion at 3:1 (monoester:diester) [5]: >95%
- Maximum monoester yield [5]: 55-65%
